Target: Cav3.2 calcium channel α-subunit, full length, human (human, UniProt O95180 1-2353)
Test: cell-based or functional assay

Sequence of Cav3.2 calcium channel α-subunit, full length, human (O95180 whole entry): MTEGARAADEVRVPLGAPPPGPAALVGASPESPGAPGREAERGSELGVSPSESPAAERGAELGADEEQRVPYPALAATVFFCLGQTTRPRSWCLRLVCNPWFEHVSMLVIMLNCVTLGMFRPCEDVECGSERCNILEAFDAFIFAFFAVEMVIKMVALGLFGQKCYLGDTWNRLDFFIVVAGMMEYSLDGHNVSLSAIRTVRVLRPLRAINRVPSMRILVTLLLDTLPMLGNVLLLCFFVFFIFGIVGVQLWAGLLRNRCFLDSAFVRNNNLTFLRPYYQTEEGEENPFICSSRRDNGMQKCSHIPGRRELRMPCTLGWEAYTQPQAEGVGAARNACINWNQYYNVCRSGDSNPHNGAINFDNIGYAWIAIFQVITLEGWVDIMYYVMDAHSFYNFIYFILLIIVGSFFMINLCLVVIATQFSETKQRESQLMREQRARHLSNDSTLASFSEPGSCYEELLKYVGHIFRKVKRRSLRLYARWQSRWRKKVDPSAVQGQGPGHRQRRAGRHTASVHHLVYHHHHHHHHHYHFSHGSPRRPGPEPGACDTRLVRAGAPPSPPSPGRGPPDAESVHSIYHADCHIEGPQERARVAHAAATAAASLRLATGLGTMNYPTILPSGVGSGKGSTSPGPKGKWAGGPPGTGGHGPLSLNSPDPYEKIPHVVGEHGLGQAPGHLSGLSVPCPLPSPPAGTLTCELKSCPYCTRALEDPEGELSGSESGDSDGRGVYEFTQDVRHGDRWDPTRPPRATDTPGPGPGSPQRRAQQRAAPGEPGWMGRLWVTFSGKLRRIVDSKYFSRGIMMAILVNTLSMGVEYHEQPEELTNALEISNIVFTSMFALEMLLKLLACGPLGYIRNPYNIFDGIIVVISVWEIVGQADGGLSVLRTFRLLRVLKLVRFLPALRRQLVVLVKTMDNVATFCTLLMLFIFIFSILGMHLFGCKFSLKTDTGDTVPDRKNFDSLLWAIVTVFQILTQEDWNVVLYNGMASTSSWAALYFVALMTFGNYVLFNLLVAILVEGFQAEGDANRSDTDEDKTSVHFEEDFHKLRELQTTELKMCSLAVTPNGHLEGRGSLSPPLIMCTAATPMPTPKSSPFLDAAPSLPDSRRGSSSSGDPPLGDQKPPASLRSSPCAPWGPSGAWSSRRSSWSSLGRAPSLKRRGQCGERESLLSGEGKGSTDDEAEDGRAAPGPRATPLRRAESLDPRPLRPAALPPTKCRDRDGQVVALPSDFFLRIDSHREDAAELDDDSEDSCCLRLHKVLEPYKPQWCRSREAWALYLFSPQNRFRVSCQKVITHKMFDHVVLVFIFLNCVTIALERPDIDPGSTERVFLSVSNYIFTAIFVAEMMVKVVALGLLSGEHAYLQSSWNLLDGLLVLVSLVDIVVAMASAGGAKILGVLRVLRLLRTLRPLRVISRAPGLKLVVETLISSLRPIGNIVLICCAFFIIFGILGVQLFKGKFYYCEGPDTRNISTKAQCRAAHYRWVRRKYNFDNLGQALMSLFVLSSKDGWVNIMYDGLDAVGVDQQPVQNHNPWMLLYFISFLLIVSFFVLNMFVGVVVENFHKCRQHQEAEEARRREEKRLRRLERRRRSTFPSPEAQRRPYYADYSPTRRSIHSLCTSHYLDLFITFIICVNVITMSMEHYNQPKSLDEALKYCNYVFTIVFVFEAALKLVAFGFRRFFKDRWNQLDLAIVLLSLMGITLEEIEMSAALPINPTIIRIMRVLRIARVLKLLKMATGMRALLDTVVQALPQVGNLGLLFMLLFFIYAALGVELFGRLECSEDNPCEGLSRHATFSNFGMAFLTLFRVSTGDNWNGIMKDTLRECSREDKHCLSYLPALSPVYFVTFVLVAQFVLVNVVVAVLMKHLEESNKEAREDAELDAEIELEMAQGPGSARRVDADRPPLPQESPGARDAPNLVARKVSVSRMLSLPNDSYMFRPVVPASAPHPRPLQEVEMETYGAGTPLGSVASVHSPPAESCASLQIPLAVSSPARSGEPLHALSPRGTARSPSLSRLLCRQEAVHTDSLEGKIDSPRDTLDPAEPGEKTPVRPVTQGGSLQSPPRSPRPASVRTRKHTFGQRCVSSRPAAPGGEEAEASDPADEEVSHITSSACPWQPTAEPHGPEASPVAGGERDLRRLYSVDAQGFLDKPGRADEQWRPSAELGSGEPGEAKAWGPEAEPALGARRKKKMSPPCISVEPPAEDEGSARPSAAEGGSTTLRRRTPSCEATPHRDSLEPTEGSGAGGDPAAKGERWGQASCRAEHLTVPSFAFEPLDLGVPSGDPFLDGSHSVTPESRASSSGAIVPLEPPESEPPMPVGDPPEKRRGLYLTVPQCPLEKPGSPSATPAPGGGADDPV

fold increase of the P2/P1 ratio of KCa1.1 current at +40 mV when P2 is preceded by a −30 mV prepulse, whole-cell patch clamp of tsA-201 cells coexpressing Cav3.2 and KCa1.1: 2.7 fold
B1: KCa1.1 potassium channel α-subunit, full length, myc-tagged, human (natural protein)
chain: not shown

From paper PMC3633930, “Low Voltage Activation of KCa1.1 Current by Cav3-KCa1.1 Complexes” (PLoS ONE, 2013)
